This note sets out measurements from the supplement of paper PMC10126150.

± gives the standard deviation of the averaged measurements.
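Note: ATP exposure 15 min at 22 °C before imaging.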

This data set deals with ATP. The data set can be described thus: switch fluorescence ratio, 500 uM ATP over buffer (Cy3 cluster intensity, sum of 5 cycles each) (fold (ratio)); higher = stronger signal-on switching upon ATP binding; sequences stand for … in TCGTCGGCAGCGTCAGATGTGTATAAGAGACAGTTTTTTTTTTTTTTTTTTTTTTTTT…TC. The note with it: aptamer strand: ATP DNA aptamer (quencher-CACCTGGGGGAGTATTGCGGAGGAAGG + anchor), 100 nM annealed; ATP concentration: 500 uM. The method, boiled down:
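For every switch-domain sequence, the fluorescence ratio is the mean of per-cluster values, each being summed target-cycle Cy3 intensity over summed buffer-cycle Cy3 intensity. Clusters outside 100-1000 RFU were excluded. On a modified Illumina MiSeq flow-cell, the Cy3-labelled switching-strand clusters were annealed to 100 nM quencher-labelled ATP aptamer, imaged in selection buffer and then after 15 min with 500 uM ATP at 22 °C. Five such cycles were run, with NaOH stripping and re-annealing between them.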
For TGTTGTTATT, the switch fluorescence ratio amounted to 1.018 ± 0.0091.

For the sequence TAAAGGGCTT, the switch fluorescence ratio is 1.02 ± 0.018.

CGAGTTATTG: the switch fluorescence ratio is 1.08 ± 0.094.

Regarding GTGTGTTGAT, the switch fluorescence ratio amounted to 0.989 ± 0.029.

On to AACGTGTGGA, for which the switch fluorescence ratio is 0.9979 ± 0.0093.

CGATATCCAC: the switch fluorescence ratio worked out at 1.07 ± 0.013.

As for TCGATGCAGC, the switch fluorescence ratio was 1.45 ± 0.31.

As for GGGTTGAGGG, the switch fluorescence ratio turned out to be 1 ± 0.027.

For TCCGATTACG, the switch fluorescence ratio came out at 1.22 ± 0.037.

For the sequence AGGGGTTTGA, the switch fluorescence ratio was 1.01 ± 0.047.

For TATCATCCGG, the switch fluorescence ratio came out at 0.985 ± 0.032.

As for TGATTCCTGC, the switch fluorescence ratio was determined as 1.02 ± 0.039.

Turning to CTTTGATTAG, the switch fluorescence ratio was 0.9838 ± 0.0061.

As to ATTCATTGC, the switch fluorescence ratio was found to be 1.038 ± 0.0048.

AATAAGGAGA: the switch fluorescence ratio came out at 1.01 ± 0.019.

Turning to TTTTTTATAG, the switch fluorescence ratio stood at 1 ± 0.038.

Consider GTTTGTTGGA, for which the switch fluorescence ratio was determined as 0.967 ± 0.03.

For the sequence TGGCTGACAG, the switch fluorescence ratio worked out at 0.992 ± 0.023.

In the case of CTCGTCACTC, the switch fluorescence ratio worked out at 1.232 ± 0.0097.

On to TACGGGGG, for which the switch fluorescence ratio was determined as 1.01 ± 0.071.

Turning to GACAGTCTCA, the switch fluorescence ratio was found to be 1.02 ± 0.021.

CAGGGTGCCA: the switch fluorescence ratio was 1.003 ± 0.0003.

On to ATGTGTGGAG, for which the switch fluorescence ratio is 1.013 ± 0.0048.

As for CAGTCATGCC, the switch fluorescence ratio came to 0.971 ± 0.058.

For ATGTAAATGC, the switch fluorescence ratio is 0.995 ± 0.02.

In the case of AAAAAATGCC, the switch fluorescence ratio is 1.07 ± 0.091.

For TCTTGTGAGG, the switch fluorescence ratio is 1.04 ± 0.13.

In the case of GAGGGACGGG, the switch fluorescence ratio amounted to 1.02 ± 0.025.

As to AGCCTGTTAG, the switch fluorescence ratio was determined as 0.9892 ± 0.0087.

Regarding TCCAGGACGA, the switch fluorescence ratio turned out to be 1.05 ± 0.023.

TTTATCAAAA: the switch fluorescence ratio turned out to be 0.993 ± 0.012.

On to GGGGAGCGAT, for which the switch fluorescence ratio is 1.05 ± 0.019.

On to TATCCCTGCT, for which the switch fluorescence ratio worked out at 1 ± 0.027.

GTCGGGAGGA: the switch fluorescence ratio amounted to 0.998 ± 0.025.

Turning to TGGGGAACTT, the switch fluorescence ratio turned out to be 1.03 ± 0.041.

With TACGGGCATA, the switch fluorescence ratio came out at 1.1 ± 0.049.

TGATGGCAAC: the switch fluorescence ratio turned out to be 1.11 ± 0.036.

Consider AGAGATTCGG, for which the switch fluorescence ratio was determined as 1.012 ± 0.01.

On to GGTGTGGAGG, for which the switch fluorescence ratio amounted to 1.021 ± 0.0047.

On to TTTATTTCTT, for which the switch fluorescence ratio is 0.98163 ± 0.0001.

For the sequence TCGATTCAGC, the switch fluorescence ratio worked out at 0.979 ± 0.025.

With GCCTGCTTGC, the switch fluorescence ratio turned out to be 1.03 ± 0.053.

As for TTTAGGTATT, the switch fluorescence ratio was 0.9598 ± 0.0042.

Take ATTTAGTTTA: the switch fluorescence ratio turned out to be 0.996 ± 0.017.

Regarding TTTTGGCGGC, the switch fluorescence ratio stood at 0.9504 ± 0.0056.

Turning to TGGCTGTACA, the switch fluorescence ratio is 1.01 ± 0.025.

For TTTTTTAGAA, the switch fluorescence ratio amounted to 1.01 ± 0.025.

With GACCTGTTTT, the switch fluorescence ratio stood at 0.987 ± 0.063.

Regarding ATAGTGTGGT, the switch fluorescence ratio turned out to be 0.986 ± 0.083.

AGGAAGCGGT: the switch fluorescence ratio came out at 0.958 ± 0.051.

Regarding GGGTCTTTTT, the switch fluorescence ratio turned out to be 1.02 ± 0.055.

On to CAGCATATAT, for which the switch fluorescence ratio turned out to be 2.32 ± 0.053.

On to AAGGTAGGGC, for which the switch fluorescence ratio came out at 1.014 ± 0.008.

With CCGGTAGGGT, the switch fluorescence ratio worked out at 1.36 ± 0.61.

With ACAGTAGGAA, the switch fluorescence ratio is 1.08 ± 0.035.

As to CGAAAGCTTG, the switch fluorescence ratio is 1.05 ± 0.02.

As for TGCGGTTTAG, the switch fluorescence ratio was 1.04 ± 0.016.

For ATTTAGGGTA, the switch fluorescence ratio is 0.9856 ± 0.0078.

For the sequence CATGGTTGGG, the switch fluorescence ratio amounted to 0.984 ± 0.037.

As to TTTTGAGATT, the switch fluorescence ratio was found to be 0.995 ± 0.011.

Take TGAGGTAGGC: the switch fluorescence ratio is 1.05 ± 0.024.

In the case of AGGGTGAATA, the switch fluorescence ratio worked out at 1.005 ± 0.0027.

As for CGCGGACACG, the switch fluorescence ratio stood at 1.01 ± 0.048.

As for TGTATGAGGT, the switch fluorescence ratio was found to be 1.02 ± 0.013.

With CGGGTTAATA, the switch fluorescence ratio is 0.989 ± 0.022.

With TATTCTACCA, the switch fluorescence ratio stood at 1.01 ± 0.011.

With AAAATGCGTG, the switch fluorescence ratio amounted to 0.966 ± 0.059.
